Experimental data reported in patent publication US20240000957A1 (published 2024).
Blank lines part the entries; values can stand above or below the binder they belong to.

Columns and labels:
[1] = biological target: T1, Human EphA5, biotinylated (Human, UniProt P54756 25-573, limits assumed, 3.1 mol biotin/monomer); assay: SPR
T1 construct: SPR; R&D Systems 3036-A5

[2] = biological target: T2, Human EphA3 Fc fusion (Human, UniProt P29320 21-541, limits assumed); assay: SPR
T2 construct: SPR; R&D Systems 6444-A3
T2 sequence (looked up): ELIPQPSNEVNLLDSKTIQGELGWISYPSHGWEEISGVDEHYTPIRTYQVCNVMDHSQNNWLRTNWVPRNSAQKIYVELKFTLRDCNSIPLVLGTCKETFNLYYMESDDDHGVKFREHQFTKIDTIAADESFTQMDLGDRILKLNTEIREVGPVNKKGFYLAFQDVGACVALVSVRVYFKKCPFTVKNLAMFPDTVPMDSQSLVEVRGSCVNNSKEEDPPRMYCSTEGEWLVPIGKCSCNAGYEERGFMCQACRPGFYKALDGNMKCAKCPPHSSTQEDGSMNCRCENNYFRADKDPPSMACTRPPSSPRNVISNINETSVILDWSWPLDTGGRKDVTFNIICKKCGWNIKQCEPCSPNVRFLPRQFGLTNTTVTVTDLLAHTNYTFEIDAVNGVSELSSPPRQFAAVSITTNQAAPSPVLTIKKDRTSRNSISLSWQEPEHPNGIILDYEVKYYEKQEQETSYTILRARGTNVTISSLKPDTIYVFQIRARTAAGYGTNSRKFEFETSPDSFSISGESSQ

[3] = biological target: T3, Human EphA5 (Human, UniProt P54756 25-573, limits assumed, biotinylated, 3.1 mol biotin/monomer); assay: SPR, biotinylated protein on streptavidin
T3 construct: Bought protein; also called R&D Systems 3036-A5

[4] = biological target: T4, Human EphA7 Fc fusion (Human, UniProt Q15375 28-555, limits assumed); assay: SPR, Fc-tagged protein captured by anti-human IgG
T4 construct: Bought Fc fusion; also called R&D Systems 6756-A7; not shown: Fc of the bought fusion
T4 sequence (looked up): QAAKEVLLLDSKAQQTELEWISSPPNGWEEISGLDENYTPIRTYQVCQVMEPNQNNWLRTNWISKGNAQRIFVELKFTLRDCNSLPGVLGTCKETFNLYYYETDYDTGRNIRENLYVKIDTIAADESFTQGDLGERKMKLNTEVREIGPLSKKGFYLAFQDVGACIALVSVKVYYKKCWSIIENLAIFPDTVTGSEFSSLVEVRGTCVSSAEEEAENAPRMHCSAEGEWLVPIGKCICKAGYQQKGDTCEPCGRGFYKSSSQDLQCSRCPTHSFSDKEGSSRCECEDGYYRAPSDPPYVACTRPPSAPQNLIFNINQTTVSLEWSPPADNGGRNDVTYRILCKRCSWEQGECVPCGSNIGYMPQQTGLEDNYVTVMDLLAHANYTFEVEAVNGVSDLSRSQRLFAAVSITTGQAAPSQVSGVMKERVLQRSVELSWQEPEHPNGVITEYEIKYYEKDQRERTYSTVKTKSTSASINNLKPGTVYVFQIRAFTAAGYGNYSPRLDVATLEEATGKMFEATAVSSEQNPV

[5] = biological target: T5, Human EphA4 Fc fusion (Human, UniProt P54764 20-547); assay: SPR, Fc-tagged protein captured by anti-human IgG
T5 construct: Bought Fc fusion; also called Sino Biologics 11314-H03H; not shown: Fc of the bought fusion

[6] = biological target: T6, Human EphA6 Fc fusion (Human, UniProt Q9UF33 23-550, limits assumed); assay: SPR, Fc-tagged protein captured by anti-human IgG
T6 construct: Bought Fc fusion; also called R&D Systems 5606-A6; not shown: Fc of the bought fusion
T6 sequence (looked up): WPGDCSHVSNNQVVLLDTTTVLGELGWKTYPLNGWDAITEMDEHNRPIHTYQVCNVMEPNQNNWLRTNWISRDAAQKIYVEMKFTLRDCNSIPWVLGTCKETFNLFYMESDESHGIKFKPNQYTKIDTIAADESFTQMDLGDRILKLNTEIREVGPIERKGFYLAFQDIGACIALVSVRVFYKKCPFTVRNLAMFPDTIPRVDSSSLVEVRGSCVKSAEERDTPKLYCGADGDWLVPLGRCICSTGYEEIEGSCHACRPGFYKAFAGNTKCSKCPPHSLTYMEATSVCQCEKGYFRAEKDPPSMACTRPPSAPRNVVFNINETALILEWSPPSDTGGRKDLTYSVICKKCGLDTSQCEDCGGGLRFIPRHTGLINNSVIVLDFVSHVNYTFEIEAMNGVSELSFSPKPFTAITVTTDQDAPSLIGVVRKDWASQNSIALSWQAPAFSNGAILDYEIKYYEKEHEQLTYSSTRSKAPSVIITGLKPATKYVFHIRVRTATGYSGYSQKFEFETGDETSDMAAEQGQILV

[7] = biological target: T7, Human EphA3 Fc fusion (Human, UniProt P29320 21-541, limits assumed); assay: SPR, Fc-tagged protein captured by anti-human IgG
T7 construct: Bought Fc fusion; also called R&D Systems 6444-A3; not shown: Fc of the bought fusion
T7 sequence (looked up): T2 sequence (looked up)

[8] = biological target: T8, Human EphB4 Fc fusion (Human, UniProt P54760 16-539); assay: SPR, Fc-tagged protein captured by anti-human IgG
T8 construct: Bought Fc fusion; also called Sino Biologics 10235-H02H; not shown: Fc of the bought fusion
T8 sequence (looked up): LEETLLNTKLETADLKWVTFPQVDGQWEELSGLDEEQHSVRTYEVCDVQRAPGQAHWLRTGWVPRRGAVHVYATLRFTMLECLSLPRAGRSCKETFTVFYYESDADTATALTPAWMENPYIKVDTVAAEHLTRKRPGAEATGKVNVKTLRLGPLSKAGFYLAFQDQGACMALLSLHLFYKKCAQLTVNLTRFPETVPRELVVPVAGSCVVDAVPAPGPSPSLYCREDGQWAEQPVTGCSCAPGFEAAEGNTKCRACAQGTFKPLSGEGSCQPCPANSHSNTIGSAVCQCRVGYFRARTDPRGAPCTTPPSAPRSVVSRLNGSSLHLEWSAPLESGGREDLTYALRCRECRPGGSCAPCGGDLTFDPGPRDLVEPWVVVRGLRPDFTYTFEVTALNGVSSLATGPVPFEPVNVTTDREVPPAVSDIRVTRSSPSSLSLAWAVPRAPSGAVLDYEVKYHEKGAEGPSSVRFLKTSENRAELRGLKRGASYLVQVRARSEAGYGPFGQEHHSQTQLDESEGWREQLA

T3 sequence (P54756 25-573 limits assumed): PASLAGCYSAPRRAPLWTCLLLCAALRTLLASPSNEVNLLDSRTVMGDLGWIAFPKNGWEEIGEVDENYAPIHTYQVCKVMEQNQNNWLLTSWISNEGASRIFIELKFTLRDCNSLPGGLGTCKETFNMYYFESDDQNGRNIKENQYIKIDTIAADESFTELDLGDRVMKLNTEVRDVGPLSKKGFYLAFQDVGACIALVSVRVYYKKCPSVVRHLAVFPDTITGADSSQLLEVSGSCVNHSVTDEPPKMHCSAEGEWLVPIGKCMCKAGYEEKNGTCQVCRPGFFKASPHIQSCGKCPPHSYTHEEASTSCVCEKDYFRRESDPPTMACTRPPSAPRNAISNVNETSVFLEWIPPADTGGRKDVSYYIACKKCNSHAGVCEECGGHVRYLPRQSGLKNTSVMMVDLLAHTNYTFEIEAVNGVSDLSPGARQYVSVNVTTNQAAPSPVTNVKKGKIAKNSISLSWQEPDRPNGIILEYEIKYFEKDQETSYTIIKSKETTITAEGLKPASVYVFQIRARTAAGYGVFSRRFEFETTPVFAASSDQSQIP
T1 sequence (P54756 25-573 limits assumed): as above
T5 sequence (P54764 20-547 limits assumed): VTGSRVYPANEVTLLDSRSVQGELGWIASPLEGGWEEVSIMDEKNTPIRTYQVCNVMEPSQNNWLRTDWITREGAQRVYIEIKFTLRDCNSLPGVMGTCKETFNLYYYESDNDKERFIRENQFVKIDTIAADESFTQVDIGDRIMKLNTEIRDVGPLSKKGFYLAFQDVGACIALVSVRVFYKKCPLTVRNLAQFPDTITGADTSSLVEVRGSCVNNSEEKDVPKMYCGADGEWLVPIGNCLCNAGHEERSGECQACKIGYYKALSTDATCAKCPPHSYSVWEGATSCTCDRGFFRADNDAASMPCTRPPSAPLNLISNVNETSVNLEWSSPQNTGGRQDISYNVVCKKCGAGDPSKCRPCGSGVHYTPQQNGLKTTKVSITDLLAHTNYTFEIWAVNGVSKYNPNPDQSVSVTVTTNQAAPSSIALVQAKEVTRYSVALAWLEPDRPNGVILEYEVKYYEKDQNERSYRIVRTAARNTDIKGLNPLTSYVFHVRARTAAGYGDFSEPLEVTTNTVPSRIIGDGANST

- binding result [3]: no binding (tested: 25 µM)
- binding result [4]: no binding (tested: 20 µM)
- binding result [5]: no binding (tested: 5 µM)
- binding result [6]: no binding (tested: 20 µM)
- binding result [7]: no binding (tested: 5 µM)
- binding result [8]: no binding (tested: 20 µM)
B2: BCY6082 (peptide)
peptide: AXDCPLVNPLCLHPGWTC
modifications: not fully specified; N-terminal (β-Ala)-Sar10 spacer precedes SEQ ID NO: 11; HArg (homoarginine) at residue 2 of SEQ ID NO: 11; three Cys cyclised on the TATA scaffold; DM1-SS(SO3H)- (DM1-SO3H-SPDB) on the N-terminal amine

- binding result [3]: no binding (tested: 25 µM)
- binding result [4]: no binding (tested: 20 µM)
- binding result [5]: no binding (tested: 5 µM)
- binding result [6]: no binding (tested: 20 µM)
- binding result [7]: no binding (tested: 5 µM)
- binding result [8]: no binding (tested: 20 µM)
B3: BCY6033 (peptide)
peptide: AXDCPLVNPLCLHPGWTC
modifications: not fully specified; N-terminal (β-Ala)-Sar10 spacer precedes SEQ ID NO: 11; HArg (homoarginine) at residue 2 of SEQ ID NO: 11; three Cys cyclised on the TATA scaffold; ValCit-MMAE (MMAE-PABC-Cit-Val-glutarate) on the N-terminal amine

Second part, the binder before the results:

B1: BCY6033 (peptide)
peptide: AXDCPLVNPLCLHPGWTC
modifications: not fully specified; as BCY6014 (N-terminal (β-Ala)-Sar10; HArg; TATA scaffold on the 3 Cys) + ValCit-MMAE
notes: Bicycle drug conjugate (BDC)
- binding result [1]: no binding
- binding result [2]: no binding

B4: BCY6082 (peptide)
peptide: AXDCPLVNPLCLHPGWTC
modifications: not fully specified; as BCY6014 (N-terminal (β-Ala)-Sar10; HArg; TATA scaffold on the 3 Cys) + DM1-SS(SO3H)-
notes: Bicycle drug conjugate (BDC)
- binding result [1]: no binding
- binding result [2]: no binding
